Key:
[1] = biological target: GUS alone (beta-glucuronidase) (UniProt P05804)
[2] = biological target: GUS-YVAA-HBD fusion protein (beta-glucuronidase, Tyr-Val-Ala-Ala-Gly linker, hormone binding domain of rat glucocorticoid receptor) (UniProt P05804)
Chain of GUS-YVAA-HBD fusion protein (beta-glucuronidase, Tyr-Val-Ala-Ala-Gly linker, hormone binding domain of rat glucocorticoid receptor) (P05804 other isoform, or with tags, fused parts or gaps): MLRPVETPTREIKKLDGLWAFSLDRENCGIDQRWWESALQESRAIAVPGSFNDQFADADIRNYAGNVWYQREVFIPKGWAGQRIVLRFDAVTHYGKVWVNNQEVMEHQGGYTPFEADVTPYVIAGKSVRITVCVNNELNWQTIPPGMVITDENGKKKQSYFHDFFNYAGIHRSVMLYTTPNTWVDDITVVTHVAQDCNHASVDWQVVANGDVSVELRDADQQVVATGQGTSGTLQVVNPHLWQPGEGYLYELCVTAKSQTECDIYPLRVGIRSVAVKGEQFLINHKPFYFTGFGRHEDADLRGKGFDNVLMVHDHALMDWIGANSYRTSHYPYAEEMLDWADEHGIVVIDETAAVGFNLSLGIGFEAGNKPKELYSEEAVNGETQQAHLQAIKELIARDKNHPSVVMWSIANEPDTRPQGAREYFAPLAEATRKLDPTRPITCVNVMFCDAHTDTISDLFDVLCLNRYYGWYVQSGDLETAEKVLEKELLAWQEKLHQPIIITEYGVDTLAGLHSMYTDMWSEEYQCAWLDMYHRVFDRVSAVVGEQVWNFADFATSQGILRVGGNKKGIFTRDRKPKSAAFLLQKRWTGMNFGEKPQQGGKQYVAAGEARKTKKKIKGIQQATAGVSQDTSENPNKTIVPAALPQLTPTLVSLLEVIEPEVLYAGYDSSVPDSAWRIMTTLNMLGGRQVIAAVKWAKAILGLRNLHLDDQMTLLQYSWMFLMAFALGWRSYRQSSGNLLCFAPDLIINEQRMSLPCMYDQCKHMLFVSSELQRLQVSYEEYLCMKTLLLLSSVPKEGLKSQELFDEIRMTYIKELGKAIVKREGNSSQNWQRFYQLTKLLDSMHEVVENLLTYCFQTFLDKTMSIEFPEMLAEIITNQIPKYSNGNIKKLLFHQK

Chain of GUS alone (beta-glucuronidase) (P05804 whole entry, looked up, the tested form may be a part): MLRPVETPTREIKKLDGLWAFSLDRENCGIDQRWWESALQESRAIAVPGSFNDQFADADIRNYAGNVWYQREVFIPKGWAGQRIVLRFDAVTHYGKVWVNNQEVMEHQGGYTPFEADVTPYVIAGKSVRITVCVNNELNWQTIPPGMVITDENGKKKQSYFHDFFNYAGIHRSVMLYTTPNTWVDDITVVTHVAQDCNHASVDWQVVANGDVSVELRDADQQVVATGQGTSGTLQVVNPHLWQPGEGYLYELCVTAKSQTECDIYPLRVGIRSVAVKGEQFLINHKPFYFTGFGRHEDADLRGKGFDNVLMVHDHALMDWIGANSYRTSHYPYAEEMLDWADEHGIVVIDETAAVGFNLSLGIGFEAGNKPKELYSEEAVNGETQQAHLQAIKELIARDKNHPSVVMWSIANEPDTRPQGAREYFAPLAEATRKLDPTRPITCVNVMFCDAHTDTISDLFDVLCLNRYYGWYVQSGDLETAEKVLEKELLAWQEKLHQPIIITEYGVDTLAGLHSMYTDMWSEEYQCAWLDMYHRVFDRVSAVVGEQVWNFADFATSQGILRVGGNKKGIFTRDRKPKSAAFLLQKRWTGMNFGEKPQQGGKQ

For purified caspase-1, which “proteolytic cleavage, SDS-PAGE autoradiogram of 35S-labelled protein” value [1] is on record?
The value was “no obvious proteolysis was detected by caspase-1 was observed with either the P1 linker mutant fusion or the GUS alone control”.

And the “GUS activity of in vitro translated fusion after addition of caspase-1” value [2]?
The value was “no detectable increase in GUS activity is observed”.

What about the “proteolytic cleavage, SDS-PAGE autoradiogram of 35S-labelled protein” value [2] of the same substance?
The value was “no obvious proteolysis was detected by caspase-1 was observed with either the P1 linker mutant fusion or the GUS alone control”.

— patent publication US7015023
